# T1: S2hlx-Ex6
# T1 construct: backbone grafting design
# T1 chain: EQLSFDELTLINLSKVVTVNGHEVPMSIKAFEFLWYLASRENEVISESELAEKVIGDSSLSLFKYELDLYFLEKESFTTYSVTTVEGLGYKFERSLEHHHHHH
# B1: DH1501.1 (antibody, V domains shown)
# VH: EVQLVESGAEVKKPGASVRVSCKASGFTFTDHYMHWVRQAPGQGLEWMGLINPTGVNTFYAQNFRGRVTMTRDTSTKTDYLEVRSLTSQDTAMYYCARMSRYGAFDIWGQGTMVTVSL
# VL: EIVLTQSPGTLSLSPGERATLSCRASQSVGSGYLAWYQQKPGQAPRLLIYGASVRATGIPDRFSGSGSGTDFSLTINRVEPEDFAMYYCQNYGSSPPRYTFGQGTKLEIK
# B2: S2P6 mAb (antibody, V domains shown)
# VH: EVQLVQSGAEVKKPGASVKVSCKASGYTFTSQYMHWVRQAPGQGLEWIGIINPSGVHTSYAQKFQGRVTLTRDTSTSTLYMELSSLRSEDTAVYYCARGSPKGAFDYWGQGTLVTVSS
# VL: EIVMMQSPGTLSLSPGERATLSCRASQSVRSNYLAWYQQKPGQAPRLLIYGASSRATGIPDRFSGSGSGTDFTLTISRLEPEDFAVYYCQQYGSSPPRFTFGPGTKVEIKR
# B3: DH1501.2 (antibody, V domains shown)
# VH: EVQLVESGAEVKKPGASVRLSCKASGDTFNNKYVHWVRQAPGQGLEWMGLINPSGSGTAFAQKFQGRVSMTRDTSTRTVYLGLTSLTYEDTAVYYCARMSRAGTFDIWDQGTMVTVSS
# VL: EIVLTQSPGTLSLSPGDRATLSCRASENVGTSYLAWYQQKPGQAPRLLISGTSSRATGVPDRFSGSGSGRDFTLTISRLEPEDFAVYYCQQYGSSPPRYTFGQGTKLDMK
# B4: DH1498 (antibody, V domains shown)
# VH: QVQLQESGPGLVKPSETLSLTCAVSGGSVSSDTYYWSWIRQPPGKGLEWIGYIYNSGSTNYNPSLKSRVTISVDTSKSQFSLNLGSVTAADTAVYYCAREGAGTYPPKNDAFDIWGQGTLVTVSS
# VL: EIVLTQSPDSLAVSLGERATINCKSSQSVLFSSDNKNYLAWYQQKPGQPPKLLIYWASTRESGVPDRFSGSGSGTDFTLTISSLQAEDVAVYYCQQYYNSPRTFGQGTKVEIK
# Experiments:
# [1] = molecular target: T2, SARS-CoV-2 D614G spike on infected cells (SARS-CoV-2, UniProt P0DTC2 14-1273); assay: flow cytometry on infected Vero E6 cells
# T2 construct: whole, on cells
# S2hlx-Ex6 = molecular target: T1, S2hlx-Ex6; assay: ELISA, coated antigen, mAb titrated
# [2] = molecular target: T2, SARS-CoV-2 D614G spike on infected cells; assay: flow cytometry, infected cells, % infected cells bound
binder,measurement,setting,value
B1,binding result,[1],binds
B2,EC50 (read off the curve),S2hlx-Ex6,~0.1 µg/mL
B3,binding result,[1],binds
B4,binding result,[2],no binding (tested: 50 µg/mL)
